Biological target: 5-FAM/QXL520 labeled MMP substrate FRET peptide (SensoLyte 520 MMP-1 Assay Kit, AnaSpec)
Experiment: cell-based or functional assay

- relative fluorescence units released on cleavage of the FRET peptide (medium of AdhGRE.MMP1-infected, DEX-treated cells) (relative fluorescence units): 59000
- relative fluorescence units released on cleavage of the FRET peptide (medium of AdhGRE.MMP1-infected, untreated cells) (relative fluorescence units): 5710
Substance: recombinant human MMP1 (wild-type), secreted by AdhGRE.MMP1-infected HTM cells and activated with APMA (active form, 41 kDa) (from UniProt P03956 100-469) (enzyme)

From patent US20110301228A1
